One block for each binder: values may come before it.
B3: CHMP1B, pure recombinant (natural protein, human, UniProt Q7LBR1 1-199, looked up)
chain: MSNMEKHLFNLKFAAKELSRSAKKCDKEEKAEKAKIKKAIQKGNMEVARIHAENAIRQKNQAVNFLRMSARVDAVAARVQTAVTMGKVTKSMAGVVKSMDATLKTMNLEKISALMDKFEHQFETLDVQTQQMEDTMSSTTTLTTPQNQVDMLLQEMADEAGLDLNMELPQGQTGSVGTSVASAEQDELSQRLARLRDQV
B4: CHMP2A, full length, pure recombinant (natural protein, human, UniProt O43633 1-222, looked up)
chain: MDLLFGRRKTPEELLRQNQRALNRAMRELDRERQKLETQEKKIIADIKKMAKQGQMDAVRIMAKDLVRTRRYVRKFVLMRANIQAVSLKIQTLKSNNSMAQAMKGVTKAMGTMNRQLKLPQIQKIMMEFERQAEIMDMKEEMMNDAIDDAMGDEEDEEESDAVVSQVLDELGLSLTDELSNLPSTGGSLSVAAGGKKAEAAASALADADADLEERLKNLRRD

Columns and labels:
CHMP1B, pure recombinant = target: B3; test: SPR
[1] = target: the molecule itself; test: light scattering at 330 nm + negative-stain transmission electron microscopy
GST-IST1NTD Y64D = GST-IST1NTD Y64D (human, UniProt P53990 1-189, Y64D); test: SPR
GST-IST1NTD Y165A = GST-IST1NTD Y165A (human, UniProt P53990 1-189, Y165A); test: SPR
GST-IST1NTD E67A = GST-IST1NTD E67A (human, UniProt P53990 1-189, E67A); test: SPR
GST-IST1NTD E168R = GST-IST1NTD E168R (human, UniProt P53990 1-189, E168R); test: SPR
[2] = target: the molecule itself; test: negative-stain transmission electron microscopy
CHMP3 I168D, L169D = target: T1, CHMP3 I168D, L169D (human, UniProt Q9Y3E7 1-222, I168D | L169D); test: negative-stain transmission electron microscopy
T1 sequence (looked up): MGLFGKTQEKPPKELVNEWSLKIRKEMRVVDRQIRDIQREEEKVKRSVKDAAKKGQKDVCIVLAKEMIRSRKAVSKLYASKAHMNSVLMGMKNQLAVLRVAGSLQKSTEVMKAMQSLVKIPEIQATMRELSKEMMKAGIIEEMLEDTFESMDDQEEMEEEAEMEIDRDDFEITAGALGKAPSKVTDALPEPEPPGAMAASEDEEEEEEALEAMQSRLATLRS

CHMP3 V48D, A64D = target: T2, CHMP3 V48D, A64D (human, UniProt Q9Y3E7 1-222, V48D | A64D); test: negative-stain transmission electron microscopy
T2 sequence (looked up): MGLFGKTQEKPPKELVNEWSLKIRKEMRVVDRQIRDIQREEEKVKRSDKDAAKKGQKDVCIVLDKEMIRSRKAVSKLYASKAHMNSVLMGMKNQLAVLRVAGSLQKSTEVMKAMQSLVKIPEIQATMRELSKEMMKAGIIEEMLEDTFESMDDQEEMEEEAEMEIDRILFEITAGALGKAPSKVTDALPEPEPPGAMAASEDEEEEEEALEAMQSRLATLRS

GST-CHMP3, wild type = target: T3, GST-CHMP3, wild type (human, UniProt Q9Y3E7 1-222); test: pull-down
T3 sequence (looked up): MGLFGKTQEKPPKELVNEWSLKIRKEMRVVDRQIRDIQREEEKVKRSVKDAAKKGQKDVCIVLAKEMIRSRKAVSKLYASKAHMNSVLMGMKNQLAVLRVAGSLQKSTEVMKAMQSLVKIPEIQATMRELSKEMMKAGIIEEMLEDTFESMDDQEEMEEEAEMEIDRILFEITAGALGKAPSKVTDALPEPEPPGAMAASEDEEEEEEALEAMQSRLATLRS

GST-CHMP3 I168D, L169D = target: T4, GST-CHMP3 I168D, L169D (human, UniProt Q9Y3E7 1-222, I168D | L169D); test: pull-down
T4 sequence (looked up): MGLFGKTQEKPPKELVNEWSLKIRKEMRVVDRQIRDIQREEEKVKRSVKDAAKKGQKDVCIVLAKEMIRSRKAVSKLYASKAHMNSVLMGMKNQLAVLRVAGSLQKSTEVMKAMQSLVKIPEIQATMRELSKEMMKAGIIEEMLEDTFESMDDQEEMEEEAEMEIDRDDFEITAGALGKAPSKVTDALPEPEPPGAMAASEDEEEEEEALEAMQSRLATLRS

GST-CHMP3 V48D, A64D = target: T5, GST-CHMP3 V48D, A64D (human, UniProt Q9Y3E7 1-222, V48D | A64D); test: pull-down
T5 sequence (looked up): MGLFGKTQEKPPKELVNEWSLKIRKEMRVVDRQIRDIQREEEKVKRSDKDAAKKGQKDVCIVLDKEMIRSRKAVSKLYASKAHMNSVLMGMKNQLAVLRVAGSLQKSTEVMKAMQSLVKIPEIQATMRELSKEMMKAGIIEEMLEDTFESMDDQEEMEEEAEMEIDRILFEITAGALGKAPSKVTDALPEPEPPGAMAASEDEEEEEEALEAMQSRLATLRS

[3] = target: B4; test: pull-down
[4] = target: B4; test: negative-stain transmission electron microscopy

Kd (CHMP1B, pure recombinant): 22 µM
B1: GST-IST1NTD, wild type (domain or fragment, human, UniProt P53990 1-189, looked up)
chain: MLGSGFKAERLRVNLRLVINRLKLLEKKKTELAQKARKEIADYLAAGKDERARIRVEHIIREDYLVEAMEILELYCDLLLARFGLIQSMKELDSGLAESVSTLIWAAPRLQSEVAELKIVADQLCAKYSKEYGKLCRTNQIGTVNDRLMHKLSVEAPPKILVERYLIEIAKNYNVPYEPDSVVMAEAPP

binding result [3]: binds
B5: GST-CHMP3_(1-150) (domain or fragment, human, UniProt Q9Y3E7 1-150, looked up)
chain: MGLFGKTQEKPPKELVNEWSLKIRKEMRVVDRQIRDIQREEEKVKRSVKDAAKKGQKDVCIVLAKEMIRSRKAVSKLYASKAHMNSVLMGMKNQLAVLRVAGSLQKSTEVMKAMQSLVKIPEIQATMRELSKEMMKAGIIEEMLEDTFES

binding result [4]: binds
B6: CHMP3_(1-150) (domain or fragment, human, UniProt Q9Y3E7 1-150, looked up)
chain: MGLFGKTQEKPPKELVNEWSLKIRKEMRVVDRQIRDIQREEEKVKRSVKDAAKKGQKDVCIVLAKEMIRSRKAVSKLYASKAHMNSVLMGMKNQLAVLRVAGSLQKSTEVMKAMQSLVKIPEIQATMRELSKEMMKAGIIEEMLEDTFES

Further lines, the binder ahead of its results:

B2: IST1NTD (N-terminal domain of IST1, residues 1-189) (domain or fragment, human, UniProt P53990 1-189, looked up)
chain: MLGSGFKAERLRVNLRLVINRLKLLEKKKTELAQKARKEIADYLAAGKDERARIRVEHIIREDYLVEAMEILELYCDLLLARFGLIQSMKELDSGLAESVSTLIWAAPRLQSEVAELKIVADQLCAKYSKEYGKLCRTNQIGTVNDRLMHKLSVEAPPKILVERYLIEIAKNYNVPYEPDSVVMAEAPP
binding result [1]: binds

Binder: B3
fold reduction of binding affinity against wild type IST1NTD (GST-IST1NTD Y64D): > 8 fold
fold reduction of binding affinity against wild type IST1NTD (GST-IST1NTD Y165A): > 8 fold
fold reduction of binding affinity against wild type IST1NTD (GST-IST1NTD E67A): 6 fold
fold reduction of binding affinity against wild type IST1NTD (GST-IST1NTD E168R): > 8 fold
binding result [2]: binds

Binder: B4
binding result (CHMP3 I168D, L169D): binds
binding result (CHMP3 V48D, A64D): binds
binding result (GST-CHMP3, wild type): binds
binding result (GST-CHMP3 I168D, L169D): binds
binding result (GST-CHMP3 V48D, A64D): binds
